Laboratory results: patent publication US20180171029A1 (REGENTS OF THE UNIVERSITY OF MINNESOTA, published 2018)

Tests used:
[1] = biological target: T1, HA-tagged human APOBEC3A (A3A-HA) (human, UniProt P31941 1-199); experiment: immunoblot of 293T lysates with A3-HA proteins (FIG. 3), hybridoma supernatant
T1 construct: Expressed by transient transfection in 293T cells; lysate resolved by SDS-PAGE (denatured) for the immunoblot; not shown: HA tag
Excerpt: (§1) Cell lysates from 293T cells transiently transfected with each HA-tagged APOBEC3 protein (A3A-HA, A3B-HA, A3C-HA, A3D-HA, A3F-HA, A3G-HA, A3H-HA) or the expression vector alone were resolved by 12% SDS-PAGE and transferred to PVDF membrane. […] Membranes were further probed with the appropriate secondary antibodies including anti-rabbit IgG IR800CW (Odyssey 926-32211, LI-COR Biosciences, Lincoln, Nebr.) 1/20,000 or anti-mouse IgG IR800CW (Odyssey 827-08364, LI-COR Biosciences, Lincoln, Nebr.) 1/20,000 in 50% Blok (WBAVDP001, Millipore, Darmstadt, Germany) in PBS-T, (PBS, 0.1% Tween-20) and images were generated using LI-COR imaging (LI-COR Biosciences, Lincoln, Nebr.).

[2] = biological target: T2, HA-tagged human APOBEC3B (A3B-HA) (human, UniProt Q9UH17 1-382); experiment: hybridoma screening (ELISA-positive clones, then immunoblot of A3-HA lysates and immunofluorescence)
T2 construct: Expressed by transient transfection in 293T cells; lysate resolved by SDS-PAGE (denatured) for the immunoblot; not shown: HA tag

[3] = biological target: T3, endogenous human APOBEC3B (A3B) of cancer cell lines (human, UniProt Q9UH17 1-382); experiment: intracellular flow cytometry, OVCAR5 and MDA-MB-468 cells with control or A3B shRNA
T3 construct: whole, on cells; Untagged endogenous, intracellular protein: detected in fixed and permeabilised cells (immunofluorescence, flow cytometry) and in cell lysates (immunoblot); also called endogenous A3B
Protocol: OVCAR5 (Monks et al., 1991, J. Natl. Cancer Inst. 83:757-766) and MDA-MB-468 (ATCC HTB-132, ATCC, Manassas, Va.) cells were transduced with lentiviruses encoding either a control or A3B-specific shRNA. Following drug selection (puromycin), cells were fixed in 1% paraformaldehyde and permeabilized in cold methanol. […] After a single PBS wash to remove unbound antibody, cells were analyzed on a flow cytometer.

[4] = biological target: T2, HA-tagged human APOBEC3B (A3B-HA); experiment: immunoblot of 293T lysates with A3-HA proteins (FIG. 3), hybridoma supernatant
Excerpt: as §1

T1 sequence (P31941 whole entry): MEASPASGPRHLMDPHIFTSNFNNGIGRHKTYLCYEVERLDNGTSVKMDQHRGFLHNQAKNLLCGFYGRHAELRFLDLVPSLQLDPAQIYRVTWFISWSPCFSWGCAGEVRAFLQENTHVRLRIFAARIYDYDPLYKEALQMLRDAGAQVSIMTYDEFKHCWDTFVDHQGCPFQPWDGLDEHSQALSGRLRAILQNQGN
T2 sequence (Q9UH17 whole entry): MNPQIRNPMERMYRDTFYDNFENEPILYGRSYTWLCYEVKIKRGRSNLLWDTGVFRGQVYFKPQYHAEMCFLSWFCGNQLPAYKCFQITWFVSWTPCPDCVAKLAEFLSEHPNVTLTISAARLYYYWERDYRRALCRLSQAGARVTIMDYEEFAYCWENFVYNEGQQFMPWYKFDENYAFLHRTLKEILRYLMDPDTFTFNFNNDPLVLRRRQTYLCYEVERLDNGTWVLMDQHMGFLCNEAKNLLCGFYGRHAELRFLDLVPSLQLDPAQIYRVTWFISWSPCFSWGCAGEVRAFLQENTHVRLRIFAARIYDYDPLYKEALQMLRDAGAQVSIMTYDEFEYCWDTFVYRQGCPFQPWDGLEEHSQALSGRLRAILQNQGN
T3 sequence (Q9UH17 whole entry): as above

Binder | binding result [1] | binding result [2] | binding result [3] | binding result [4]
monoclonal antibody produced by hybridoma cell line 5210-08-15 (antibody, V domains shown, Rabbit monoclonal antibody, tested as hybridoma culture supernatant; The Ig chain entries come from cDNA and may include a leader peptide; no cleavage site stated) VH: QEQLEESGGGLVKPGGTLTLTCKASGFSFSDGYWMCWIRQAPGKGLEWIGCIYDASGGAYFPSWAKGRFTISKTSSTTVTLEMTSLTDADTAIYFCVKTDYGSSKLWGPGTLVTVSS VL: AVVLTQTASPVSAPVGGTVTINCQASQNIYSNLAWYQQKPGQPPKLLIYGASTLASGVSSRFKGSRSGTEFTLTISDLECADAATYYCQSYVYSSSTADTFGGGTKVVVEV | binds | binds |  | 
monoclonal antibody produced by hybridoma cell line 5210-87-13 (antibody, V domains shown, Rabbit monoclonal antibody; hybridoma supernatant in the screens, mAb preparation in the work on endogenous A3B; The Ig chain entries come from cDNA and may include a leader peptide; no cleavage site stated) VH: QSVKESEGGLFKPTDTLTLTCTVSGFSLSSYRMHWVRQAPGNGLEWIGSISSGGNAAYARWANTRSTITRNTNLNTVTLKMTSLTAADTATYFCGSNVIWGPGTLVTVSS VL: DPVLTQTPSSVSAAVGGTVTISCQSSESVFKKNWLAWYHQKPGQSPKRLIYGASTLESGAPSRFRGSGSGTQFTLTISDLECGDAATYYCAGAFDGNIYPFGGGTEVVVKG | binds |  | binds | binds
